Substitutions are numbered along the chain they refer to. Names and notes keep the numbering of the source.
B1: ALC1^fl R860W: constitutively active mutant of ALC1 (protein)
chain: FLLRLHTEGRAEAARVQEQDLRQWGLTGIHLRSYQLEGVNWLAQRFHCQNGCILGDEMGLGKTCQTIALFIYLAGRLNDEGPFLILCPLSVLSNWKEEMQRFAPGLSCVTYAGDKEERACLQQDLKQESRFHVLLTTYEICLKDASFLKSFPWSVLVVDEAHRLKNQSSLLHKTLSEFSVVFSLLLTGTPIQNSLQELYSLLSFVEPDLFSKEEVGDFIQRYQDIEKESESASELHKLLQPFLLRRVKAEVATELPKKTEVVIYHGMSALQKKYYKAILMKDLDAFENETAKKVKLQNILSQLRKCVDHPYLFDGVEPEPFEVGDHLTEASGKLHLLDKLLAFLYSGGHRVLLFSQMTQMLDILQDYMDYRGYSYERVDGSVRGEERHLAIKNFGQQPIFVFLLSTRAGGVGMNLTAADTVIFVDSDFNPQNDLQAAARAHRIGQNKSVKVIRLIGRDTVEEIVYRKAASKLQLTNMIIEGGHFTLGAQKPAADADLQLSEILKFGLDKLLASEGSTMDEIDLESILGETKDGQWVSDALPAAEGGSRDQEEGKNHMYLFEGKDYSKEPSKEDRKSFEQLVNLQKTLLEKASQEGRSLRNKGSVLIPGLVEGSTKRKRVLSPEELEDRQKKRQEAAAKRRRLIEEKKRQKEEAEHKKKMAWWESNNYQSFCLPSEESEPEDLENGEESSAELDYQDPDATSLKYVSGDVTHPQAGAEDALIVHCVDDSGHWGRGGLFTALEKRSAEPRKIYELAGKMKDLSLGGVLLFPVDDKESRNKGQDLLALIVAQHRDRSNVLSGIKMAALEEGLKKIFLAAKKKKASVHLPRIGHATKGFNWYGTERLIWKHLAARGIPTYIYYFPRSK
modifications: left off: His6, end not stated, state not stated
B2: ALC1^fl R611A/S612A/R860W: ALC1^RLS Arg anchor (R611) and adjacent residue (S612) mutated to alanines (protein)
chain: B1 chain with R596A, S597A
modifications: left off: His6, end not stated, state not stated
notes: ALC1^RLS Arg anchor (R611) and adjacent residue (S612) mutated to alanines

Key:
[1] = system: individual WT/WT nucleosomes; assay: smFRET remodeling directionality, WT/WT nucleosomes; format: biochemical, Xenopus laevis histones; conditions: 2.5 μM remodeler, 1 mM ATP, n > 100 traces
Description: (§1) The DNA constructs used in the nucleosome assembly for single-molecule and ensemble remodeling studies comprised the Widom 601 nucleosome positioning sequence ([Lowary and Widom, 1998]) as well as either 3 bp or 12 bp of linker DNA on one side and 78 bp on the other side (for the single-molecule remodeling construct) or 63 bp of linker DNA on one side and no linker DNA on the other side (for the ensemble remodeling construct). All constructs were 5’-labeled with Cy5 on the short linker end. The constructs for single-molecule experiments additionally featured a biotin on the long linker end. […] The DNA constructs for the assembly of nucleosomes used in fluorescence anisotropy experiments and ATPase assays comprised the Widom 601 positioning sequence without additional linker DNA (for the fluorescence anisotropy construct) or 63 bp of linker DNA on one side and no linker DNA on the other side (for the ATPase assay construct). […]
(§2) Using the DNA constructs for single-molecule FRET described above, we first generated oriented hexasomes with H2A-Cy3 on the short linker side using a salt dialysis method as described previously ([Dyer et al., 2004]; [Levendosky et al., 2016]; [Sabantsev et al., 2019]). […] Data were analyzed using custom scripts for the Fiji distribution of ImageJ ([Schindelin et al., 2012]; [Schneider et al., 2012]), IDL, and MATLAB ([Sabantsev et al., 2019]). […]

[2] = system: ALC1-catalyzed remodeling of APM/APM nucleosomes; assay: Ensemble FRET nucleosome remodeling, APM/APM versus WT/WT nucleosomes; format: biochemical, Homo sapiens ALC1; Xenopus laevis histones; conditions: 20 μM remodeler, 10 nM nucleosomes, 1.5 mM ATP; n = 3 independent experiments
Description: (§3) cDNAs for ALC1 and PARP1 were of Homo sapiens origin. Histone proteins (recombinantly expressed in E. coli) were of Xenopus laevis origin. Cell lines as well as growth conditions are described in the Method Details.
(§4) Oligonucleotides used in this study were ordered from IDT (see Table S3). The ALC1^fl (16-879) construct contains the human ALC1 sequence and a 6xHis-tag, as previously published ([Lehmann et al., 2017]). All point mutations were generated by PCR-based site-directed mutagenesis. The plasmid for human PARP1 (1-1014) with an N-terminal 6xHis-tag was a kind gift from John M. Pascal ([Langelier et al., 2017]).
as §1, with “construct).” for “construct). All constructs were 5’-labeled with Cy5 on the short linker end. The constructs for single-molecule experiments additionally featured a biotin on the long linker end.”

[3] = system: individual WT/APM nucleosomes; assay: smFRET remodeling directionality, WT/APM nucleosomes; format: biochemical, Xenopus laevis histones; conditions: 2.5 μM remodeler, 1 mM ATP, n > 100 traces
Description: as §1, §2

[4] = system: ALC1 ATPase with WT/WT nucleosomes; assay: Nucleosome-stimulated ATPase activity; format: biochemical, Homo sapiens ALC1; Xenopus laevis histones
Experimental: (§5) ATPase activity was measured using a coupled assay that measures ADP production as described previously, ([Willhoft et al., 2016]). Final concentrations of 0.45 mM NADH, 1.0 mM phosphoenolpyruvate, 54 U/ml pyruvate kinase (Sigma), and 78 U/ml lactic dehydrogenase (Sigma) were used. For measurements of nucleosome-stimulated ATPase activity, reactions contained 20 μM ALC1,2 μM WT/WT nucleosomes, and 1 mM ATP in a volume of 30 μl. Fluorescence was monitored (excitation wavelength: 340 nm; emission wavelength: 430 nm) at 37°C using a CLARIOstar microplate reader (BMG Labtech) and black low-volume 384-well microplates (Corning). For measurements of DNA-stimulated ATPase activity, the absorbance was monitored at 340 nm for reactions containing a final of 1 μM ALC1 and either 20 μM or 50 μM 145 bp nucleosomal double-stranded (ds) DNA in 100 μl. Reaction rates were determined using mean linear slopes. For measurements of nucleosome-stimulated ATPase activity, we estimated Vmax for both ALC1^fl R860W and ALC1^fl R611A/S612A/R860W using the Michaelis-Menten equation and the Km values that we obtained from nucleosome sliding kinetics in Figure 3B.
For fluorescence anisotropy binding experiments, the reported values represent the mean ± SEM from 3 independent experiments. For ATPase activity measurements, the reported values represent the mean ± standard deviation from 3 independent experiments. For ensemble nucleosome remodeling time courses, each experimental condition was recorded in 3 independent experiments, and representative remodeling time courses are shown. Relative remodeling rates derived from these curves represent the mean ± standard deviation from 3 independent experiments. For smFRET experiments, values are reported as mean ± SEM from several experiments as specified in the corresponding figure legends. For association kinetics from live-cell imaging, error bars represent SEM from N ≥ 131 traces from 3 independent experiments.

[5] = system: ALC1-catalyzed remodeling of WT/WT nucleosomes; assay: Ensemble FRET nucleosome remodeling, WT/WT nucleosomes; format: biochemical, Homo sapiens ALC1; Xenopus laevis histones
Description: as §3, §4
as §1, with “construct).” for “construct). All constructs were 5’-labeled with Cy5 on the short linker end. The constructs for single-molecule experiments additionally featured a biotin on the long linker end.”
Nucleosome ensemble remodeling kinetics were measured by monitoring the Cy5 (under 620 nm and 520 nm excitation) and Cy3 (under 520 nm excitation) fluorescence emission signals of a solution of FRET-labeled nucleosomes using a Spark (Tecan) or CLARIOstar (BMG Labtech) multimode microplate reader. […] Reaction kinetics were analyzed assuming a standard Michaelis-Menten mechanism.
(§6) For fluorescence anisotropy binding experiments, the reported values represent the mean ± SEM from 3 independent experiments. […] For ensemble nucleosome remodeling time courses, each experimental condition was recorded in 3 independent experiments, and representative remodeling time courses are shown. […]

[6] = system: ALC1 ATPase with 145 bp dsDNA; assay: DNA-stimulated ATPase activity; format: biochemical, Homo sapiens ALC1; conditions: 1 μM ALC1, 20 μM or 50 μM 145 bp dsDNA, 1 mM ATP; N = 3 independent experiments
Experimental: as §5, with “For measurements of nucleosome-stimulated ATPase activity, we estimated Vmax for both ALC1^fl R860W and ALC1^fl R611A/S612A/R860W using the Michaelis-Menten equation and the Km values that we obtained from nucleosome sliding kinetics in Figure 3B.” left out
as §6

[7] = system: individual WT/WT nucleosomes with 3 bp of linker DNA; assay: smFRET remodeling, pause duration; format: biochemical, Xenopus laevis histones
Description: as §1, §2

[8] = WT/WT nucleosomes 10 nM, various remodeler concentrations, Michaelis-Menten

Molecule	fraction of single-nucleosome remodeling traces with initial decrease in FRET (toward longer linker DNA) [1]	fraction of traces with opposite directionality (toward shorter linker DNA) [1]	fold decrease in remodeling rate, APM/APM versus WT/WT nucleosomes [2]	fraction of WT/APM nucleosomes moved toward the shorter linker end [3]	nucleosome-stimulated ATPase activity, fold higher than DNA-stimulated ATPase activity ([4]; 20 μM ALC1 with 2 μM WT/WT nucleosomes versus 1 μM ALC1 with dsDNA, 1 mM ATP)	FRET change upon addition of remodeler and ATP ([5]; WT/WT end-positioned nucleosomes, saturating remodeler and ATP)	DNA-stimulated ATPase activity, ALC1^fl R860W versus ALC1^fl R611A/S612A/R860W [6]	average binding time relative to average pause duration (pause fold shorter) ([7]; remodeler concentration 20 μM)	increase in observed pause duration on lowering remodeler concentration by a factor of 4 ([7]; remodeler concentration lowered 4-fold)	fold reduction of ATPase rate versus ALC1^fl R860W ([4]; 20 μM ALC1, 2 μM WT/WT nucleosomes, 1 mM ATP, 37°C, n = 3 independent experiments)	fold reduction of ATPase rate versus ALC1^fl R860W, saturating conditions (Vmax) ([4]; under saturating conditions, Vmax estimated with Michaelis-Menten equation and Km values from nucleosome sliding kinetics)	fold decrease of maximum rate for remodeling versus ALC1^fl R860W [5, 8]	fold increase of Michaelis constant for remodeling versus ALC1^fl R860W [5, 8]
B1	62%	38%	~ 13.7 fold	89%	~ 1.6 fold	FRET decreased	essentially identical DNA-stimulated ATPase activity	–	–	–	–	–	–
B2	–	–	~ 3.2 fold	–	–	–	essentially identical DNA-stimulated ATPase activity	2.8 fold	30%	~ 2.5 fold	~ 2 fold	~ 6.4 fold	~ 5.3 fold

Reference: publication PMC7116876, “Mechanistic Insights into Regulation of the ALC1 Remodeler by the Nucleosome Acidic Patch” (Cell reports, 2020)
